Results published in patent US9988424 (DUKE UNIVERSITY, dated 2018).

Key:
D.9009SA V1/V2 tags = experiment: ELISA, OD405 at 10 ug/ml
gp70 B.CaseA2 V1/V2 = biological target: T1, gp70 B.CaseA2 V1/V2 (HIV-1 V1V2 on murine leukemia virus gp70); experiment: ELISA
T1 construct: also called B.gp70CaseA2 V1/V2; gp70 B.CaseAV1V2
T1 chain: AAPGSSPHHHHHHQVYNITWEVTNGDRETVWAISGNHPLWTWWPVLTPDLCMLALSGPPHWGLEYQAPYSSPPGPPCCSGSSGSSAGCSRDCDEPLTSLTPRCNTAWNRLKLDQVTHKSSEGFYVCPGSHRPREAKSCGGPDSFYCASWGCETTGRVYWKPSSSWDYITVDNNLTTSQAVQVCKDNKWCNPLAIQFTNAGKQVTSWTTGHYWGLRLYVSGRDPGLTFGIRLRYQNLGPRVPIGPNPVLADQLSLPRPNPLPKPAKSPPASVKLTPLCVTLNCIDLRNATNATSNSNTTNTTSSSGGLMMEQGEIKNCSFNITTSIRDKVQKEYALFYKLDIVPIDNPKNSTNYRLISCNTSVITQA

Env of SHIV SF162P3 = Env of SHIV SF162P3 (SHIV); experiment: cell-based or functional assay
Env of SHIV-1157ipd3N4 = Env of SHIV-1157ipd3N4 (SHIV); experiment: cell-based or functional assay
Env of SHIV-SF162P4 = Env of SHIV-SF162P4 (SHIV); experiment: cell-based or functional assay
Env of SHIV-1157ipEL-p = Env of SHIV-1157ipEL-p (SHIV); experiment: cell-based or functional assay
Env of SHIV-BaL = Env of SHIV-BaL (SHIV); experiment: cell-based or functional assay
AE.A244 V1V2 Tags [1] = biological target: AE.A244 V1V2 Tags (HIV-1)
C.1086 gp120 = C.1086 gp120 (HIV-1); experiment: ELISA
AE.97CNG2XF gp140CF = biological target: T2, AE.97CNG2XF gp140CF (HIV-1); experiment: ELISA
T2 construct: also called E.97CNGX2F gp140CF

AE.92TH023 gp120 gD+ = biological target: T3, AE.92TH023 gp120 gD+ (HIV-1); experiment: ELISA
T3 construct: domain: gp120; also called AE.92TH023 gp12 gD+

AE.A244 gD+ gp120 = biological target: T4, AE.A244 gD+ gp120 (HIV-1); experiment: ELISA
T4 construct: domain: gp120; also called AE.A244 gp120gD+

AE.A244 V1V2 Tags [2] = biological target: AE.A244 V1V2 Tags (HIV-1); experiment: ELISA; markers as in the legend printed on D00157
G.con 140CF = biological target: T5, G.con 140CF; experiment: ELISA OD405nm, bar chart, antibody concentration not given
T5 construct: also called G.con gp140CF; G.con.env03 gp140CF

Con 6 gp120 = experiment: ELISA, OD405 at 10 ug/ml
G.con gp140CF = experiment: ELISA, OD405 at 10 ug/ml
C.1086 gp140 = biological target: T6, C.1086 gp140; experiment: ELISA, OD405 at 10 ug/ml
T6 construct: also called C.1086gp140C

AE.con gp140CF = experiment: ELISA, OD405 at 10 ug/ml
B.con gp140CF [3] = experiment: ELISA, OD405 at 10 ug/ml
B.040 gp140C = experiment: ELISA, OD405 at 10 ug/ml
B.62357 gp140C = biological target: T7, B.62357 gp140C; experiment: ELISA, OD405 at 10 ug/ml
T7 construct: also called B.62357 140C

A.9004SS V1V2 Tags = biological target: T8, A.9004SS V1V2 Tags; experiment: ELISA, OD405
T8 Env construct: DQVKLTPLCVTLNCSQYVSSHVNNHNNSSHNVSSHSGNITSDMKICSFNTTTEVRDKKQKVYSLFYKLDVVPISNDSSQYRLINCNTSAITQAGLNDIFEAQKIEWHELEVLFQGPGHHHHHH

D.9009SA V1V2 Tags = biological target: T9, D.9009SA V1V2 Tags; experiment: ELISA, OD405
T9 Env construct: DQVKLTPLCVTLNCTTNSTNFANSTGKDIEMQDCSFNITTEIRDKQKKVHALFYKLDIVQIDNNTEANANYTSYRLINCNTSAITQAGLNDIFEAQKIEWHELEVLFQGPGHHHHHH

B. 681-7 gp140C = experiment: ELISA, OD405
B.con gp140CF [4] = biological target: T10, B.con gp140CF; experiment: ELISA, OD405
T10 construct: also called B.con.env03 gp140CF

B.62357 140C = biological target: T11, B.62357 140C; experiment: ELISA, OD405
T11 construct: also called B.62357 gp140C

B1: 697D (antibody, V domains shown)
VH: QVQLVQSGAEVKKPGSSVKVSCKASGGNFNTYTISWVRQAPGQGLEWMGRIIPIFGIVNPAQKFPGRVTINVDKSTNTAYMELSSLRSEDTAVYYCATSGVGLHFGYFDYWGQGTQVTVSS
VL: QSVLTQPPSVSGAPGQRVTISCTGSSSNIGAHYDVHWYQQLPGTAPKLLIYGNSNRPSGVPDRFSGSKSGTSASLAITGLQAEDEADYYCQSYDSSLSGYVFGTGTKVTVL
notes: also called mAb 697D; V2 conformational mAb 697D
Question: Which results are given for B1?
Answer: binding result (D.9009SA V1/V2 tags): no binding (tested: 10 ug/ml); EC50 (gp70 B.CaseA2 V1/V2): 0.04 mg/L

B2: CH59 (antibody, V domains shown)
VH: EVQLVESGGGLVQPGRSLRLSCAASGFTFDDGAMHWVRQAPGKGLEWVSGISWNSNIIAYADSVKGRFTISRDNAKNSLYLEMNSLRVEDTALYYCAKDSPRGELPLNYWGQGTLVTVSS
VL: SYELTQPPSVSVSPGQTARITCSGDALPKNYAYWYQQKSGQAPVLVIYEDSKRPSGIPERFSGSSSGTMATLTISGAQVEDEADYYCYSTDSSGNHRVFGGGTKLTVL
notes: also called mAb CH59
Question: How did the “EC50, neutralization of SHIV B.SF162P3 (tier 2)” value (Env of SHIV SF162P3) turn out when B2 was run?
Answer: > 50 mg/L

Question: What about the “EC50, neutralization of SHIVC.1157ipd3N4 (tier 2)” value (Env of SHIV-1157ipd3N4) of the same binder?
Answer: > 50 mg/L

Question: What about the “EC50, neutralization of SHIV B.SF162P4 (tier 2)” value (Env of SHIV-SF162P4) of the same binder?
Answer: > 50 mg/L

Question: And the “EC50, neutralization of SHIV C.1157ipEL-p (tier 1A)” value (Env of SHIV-1157ipEL-p)?
Answer: 24.6 mg/L

Question: What about the “EC50, neutralization of SHIV B.BaL (tier 2)” value (Env of SHIV-BaL) of the same binder?
Answer: > 50 mg/L

Question: And the Kd (AE.A244 V1V2 Tags [1])?
Answer: 0.48 nM

Question: And the koff (AE.A244 V1V2 Tags [1])?
Answer: 0.00011 s⁻¹

Question: What about the kon (AE.A244 V1V2 Tags [1]) of the same binder?
Answer: 238000 M⁻¹ s⁻¹

Question: What about the EC50 (C.1086 gp120) of the same binder?
Answer: 0.02 mg/L

Question: And the EC50 (AE.97CNG2XF gp140CF)?
Answer: 0.066 mg/L

Question: And the EC50 (AE.92TH023 gp120 gD+)?
Answer: 0.023 mg/L

Question: And the EC50 (AE.A244 gD+ gp120)?
Answer: 0.01 mg/L

B3: CH59 reverted unmutated ancestor antibody (antibody, V domains shown)
VH: EVQLVESGGGLVQPGRSLRLSCAASGFTFDDYAMHWVRQAPGKGLEWVSGISWNSGSIGYADSVKGRFTISRDNAKNSLYLQMNSLRAEDTALYYCAKDSPRGELPFDYWGQGTLVTVSS
VL: SYELTQPPSVSVSPGQTARITCSGDALPKKYAYWYQQKSGQAPVLVIYEDSKRPSGIPERFSGSSSGTMATLTISGAQVEDEADYYCYSTDSSGNHRVFGGGTKLTVL
notes: also called CH59 RUA; CH59_RUA
Question: B3 was tested. Which “EC50 (read off the curve)” value (AE.A244 V1V2 Tags [2]) did it give?
Answer: ~0.08 mg/L

B4: CH58 reverted unmutated ancestor antibody (antibody, V domains shown)
VH: EVQLVQSGAEVKKPGESLKISCKGSGYSFTSYWIGWVRQMPGKGLEWMGIIYPGDSDTRYSPSFQGQVTISADKSISTAYLQWSSLKASDTAMYYCARLGGRYYYDSSGYYYFDYWGQGTLVTVSS
VL: NFMLTQPHSVSESPGKTVTISCTRSSGSIASNYVQWYQQRPGSSPTTVIYEDNQRPSGVPDRFSGSIDSSSNSASLTISGLKTEDEADYYCQSYDSSSWVFGGGTKLTVL
notes: also called CH58 RUA; CH58_RUA
Question: Does B4 bind (G.con 140CF)?
Answer: no binding (tested: not given)

Question: Does B4 bind (Con 6 gp120)?
Answer: no binding (tested: 10 ug/ml)

Question: Does B4 bind (G.con gp140CF)?
Answer: no binding (tested: 10 ug/ml)

Question: Does B4 bind (C.1086 gp140)?
Answer: no binding (tested: 10 ug/ml)

Question: Does B4 bind (AE.con gp140CF)?
Answer: no binding (tested: 10 ug/ml)

Question: Does B4 bind (B.con gp140CF [3])?
Answer: no binding (tested: 10 ug/ml)

Question: Does B4 bind (B.040 gp140C)?
Answer: no binding (tested: 10 ug/ml)

Question: Does B4 bind (B.62357 gp140C)?
Answer: no binding (tested: 10 ug/ml)

B5: PG16 (antibody, V domains shown)
VH: QEQLVESGGGVVQPGGSLRLSCLASGFTFHKYGMHWVRQAPGKGLEWVALISDDGMRKYHSDSMWGRVTISRDNSKNTLYLQFSSLKVEDTAMFFCAREAGGPIWHDDVKYYDFNDGYYNYHYMDVWGKGTTVTVSS
VL: QSALTQPASVSGSPGQTITISCNGTSSDVGGFDSVSWYQQSPGKAPKVMVFDVSHRPSGISNRFSGSKSGNTASLTISGLHIEDEGDYFCSSLTDRSHRIFGGGTKVTVL
notes: also called mAb PG16; bnAb PG16
Question: Does B5 bind (A.9004SS V1V2 Tags)?
Answer: no binding (tested: 10 ug/ml)

Question: Does B5 bind (D.9009SA V1V2 Tags)?
Answer: no binding (tested: 10 ug/ml)

Question: Does B5 bind (B. 681-7 gp140C)?
Answer: no binding (tested: 10 ug/ml)

Question: Does B5 bind (B.con gp140CF [4])?
Answer: no binding (tested: 10 ug/ml)

Question: Does B5 bind (B.62357 140C)?
Answer: no binding (tested: 10 ug/ml)
